According to the supplement of paper PMC11246515:
± gives the standard deviation of the averaged measurements.

Test: total protein half-life in vivo (active degradation + dilution); higher = more stable protein
[1] = E. coli NCM3722 delta-clpP delta-lon delta-hslV, growth: N-lim chemostat, doubling time 6 h
[2] = E. coli NCM3722 delta-clpP, growth: N-lim chemostat, doubling time 6 h
[3] = E. coli NCM3722 delta-hslV, growth: N-lim chemostat, doubling time 6 h
[4] = E. coli NCM3722 delta-lon, growth: N-lim chemostat, doubling time 6 h
[5] = E. coli NCM3722 delta-smpB, growth: N-lim chemostat, doubling time 6 h
[6] = wild type E. coli NCM3722, growth: C-lim chemostat, doubling time 3 h
[7] = wild type E. coli NCM3722, growth: C-lim chemostat, doubling time 6 h
[8] = wild type E. coli NCM3722, growth: C-lim chemostat, doubling time 12 h
[9] = wild type E. coli NCM3722, growth: N-lim chemostat, doubling time 6 h
[10] = wild type E. coli NCM3722, growth: N-lim chemostat, doubling time 12 h
[11] = wild type E. coli NCM3722, growth: P-lim chemostat, doubling time 6 h
[12] = wild type E. coli NCM3722, growth: P-lim chemostat, doubling time 12 h

Sequence | total protein half-life in vivo [1] | total protein half-life in vivo [2] | total protein half-life in vivo [3] | total protein half-life in vivo [4] | total protein half-life in vivo [5] | total protein half-life in vivo [6] | total protein half-life in vivo [7] | total protein half-life in vivo [8] | total protein half-life in vivo [9] | total protein half-life in vivo [10] | total protein half-life in vivo [11] | total protein half-life in vivo [12]
MTAIAPVITIDGPSGAGKGTLCKAMAEALQWHLLDSGAIYRVLALAALHHHVDVASEDALVPLASHLDVRFVSTNGNLEVILEGEDVSGEIRTQEVANAASQVAAFPRVREALLRRQRAFRELPGLIADGRDMGTVVFPDAPVKIFLDASSEERAHRRMLQLQEKGFSVNFERLLAEIKERDDRDRNRAVAPLVPAADALVLDSTTLSIEQVIEKALQYARQKLALA [P0A6I0] | 4.56 ± 0.24 h | 4.93 ± 0.48 h | 4.14 ± 0.16 h | 4.79 ± 0.34 h | 3.86 ± 0.083 h | 3.05 ± 0.14 h | 5.44 ± 0.4 h | 9.23 ± 1.1 h | 4.15 ± 0.046 h | 6.34 ± 1.1 h | 4.71 ± 0.26 h | 9.34 ± 0.78 h
MATHFARGILTEGHLISVRLPSQCHQEARNIPPHRQSRFLASRGLLAELMFMLYGIGELPEIVTLPKGKPVFSDKNLPSFSISYAGNMVGVALTTEGECGLDMELQRATRGFHSPHAPDNHTFSSNESLWISKQNDPNEARAQLITLRRSVLKLTGDVLNDDPRDLQLLPIAGRLKCAHVNHVEALCDAEDVLVWSVAVTPTIEKLSVWELDGKHGWKSLPDIHSRANNPTSRMMRFAQLSTVKAFSPN [P0ADM8] | – | 4.2 ± 0.51 h | 3.24 ± 1.1 h | 2.271 ± 0.01 h | 2.5 ± 0.27 h | – | 3.36 ± 0.66 h | 6.92 ± 0.22 h | 2.12 ± 0.18 h | 3.63 ± 0.21 h | 3.22 ± 0.14 h | 5.24 ± 0.93 h
MEPKTKKQRSLYIPYAGPVLLEFPLLNKGSAFSMEERRNFNLLGLLPEVVETIEEQAERAWIQYQGFKTEIDKHIYLRNIQDTNETLFYRLVNNHLDEMMPVIYTPTVGAACERFSEIYRRSRGVFISYQNRHNMDDILQNVPNHNIKVIVVTDGERILGLGDQGIGGMGIPIGKLSLYTACGGISPAYTLPVVLDVGTNNQQLLNDPLYMGWRNPRITDDEYYEFVDEFIQAVKQRWPDVLLQFEDFAQKNAMPLLNRYRNEICSFNDDIQGTAAVTVGTLIAASRAAGGQLSEKKIVFLGAGSAGCGIAEMIISQTQREGLSEEAARQKVFMVDRFGLLTDKMPNLLPFQTKLVQKRENLSDWDTDSDVLSLLDVVRNVKPDILIGVSGQTGLFTEEIIREMHKHCPRPIVMPLSNPTSRVEATPQDIIAWTEGNALVATGSPFNPVVWKDKIYPIAQCNNAFIFPGIGLGVIASGASRITDEMLMSASETLAQYSPLVLNGEGMVLPELKDIQKVSRAIAFAVGKMAQQQGVAVKTSAEALQQAIDDNFWQAEYRDYRRTSI | 6.33 ± 0.63 h | 6.5 ± 0.58 h | 5.686 ± 0.037 h | 6.01 ± 0.3 h | 6.06 ± 0.73 h | 3.1 ± 0.2 h | 5.94 ± 0.31 h | 10.8 ± 0.22 h | 5.23 ± 0.31 h | 10.8 ± 0.32 h | 6.05 ± 0.42 h | 12.1 ± 0.8 h
MKLRWFAFLIVLLAGCSSKHDYTNPPWNAKVPVQRAMQWMPISQKAGAAWGVDPQLITAIIAIESGGNPNAVSKSNAIGLMQLKASTSGRDVYRRMGWSGEPTTSELKNPERNISMGAAYLNILETGPLAGIEDPKVLQYALVVSYANGAGALLRTFSSDRKKAISKINDLDADEFLEHVARNHPAPQAPRYIYKLEQALDAM [P0C960] | – | 4.98 ± 0.62 h | 3.8 ± 0.54 h | 3.57 ± 0.47 h | 2.72 ± 0.08 h | 1.97 ± 0.14 h | 2.98 ± 0.34 h | 6.46 ± 0.21 h | 2.84 ± 0.17 h | 3.2 h | 4 ± 0.3 h | 7.81 ± 0.18 h
MMDSLRTAANSLVLKIIFGIIIVSFILTGVSGYLIGGGNNYAAKVNDQEISRGQFENAFNSERNRMQQQLGDQYSELAANEGYMKTLRQQVLNRLIDEALLDQYARELKLGISDEQVKQAIFATPAFQVDGKFDNSRYNGILNQMGMTADQYAQALRNQLTTQQLINGVAGTDFMLKGETDELAALVAQQRVVREATIDVNALAAKQPVTEQEIASYYEQNKNNFMTPEQFRVSYIKLDAATMQQPVSDADIQSYYDQHQDQFTQPQRTRYSIIQTKTEDEAKAVLDELNKGGDFAALAKEKSADIISARNGGDMGWLEDATIPDELKNAGLKEKGQLSGVIKSSVGFLIVRLDDIQPAKVKSLDEVRDDIAAKVKHEKALDAYYALQQKVSDAASNDTESLAGAEQAAGVKATQTGWFSKDNLPEELNFKPVADAIFNGGLVGENGAPGINSDIITVDGDRAFVLRISEHKPEAVKPLADVQEQVKALVQHNKAEQQAKVDAEKLLVDLKAGKGAEAMQAAGLKFGEPKTLSRSGRDPISQAAFALPLPAKDKPSYGMATDMQGNVVLLALDEVKQGSMPEDQKKAMVQGITQNNAQIVFEALMSNLRKEAKIKIGDALEQQ [P0ADY1] | 6.92 ± 0.99 h | 6.533 ± 0.039 h | 5.89 ± 0.078 h | 6.39 ± 0.26 h | 6.15 ± 0.67 h | 3.05 ± 0.23 h | 5.96 ± 0.096 h | 12.7 ± 1.2 h | 6.17 ± 0.25 h | 12.8 ± 1.7 h | 5.92 ± 0.088 h | 12.4 ± 0.2 h
